# Laboratory results as given in patent US20240043504A1 (published 2024).
# Molecular target: SARS-COV-2 RBD extracellular domain expressed with a C-terminal mouse IgG2a (SARS-CoV-2)
# Test: SPR Biacore, mAb captured via anti-hFc, 25 C
Binder,Kd [nM],koff [s⁻¹],kon [M⁻¹ s⁻¹],t½ [h]
"mAb10934 (antibody, V domains shown) VH: not shown VL: DIQMTQSPSSLSASVGDRVTITCQASQDIWNYINWYQQKPGKAPKLLIYDASNLKTGVPSRFSGSGSGTDFTFTISSLQPEDIATYYCQQHDDLPPTFGQGTKVEIKR",0.0139,–,–,–
"mAb10935 (antibody, V domains shown) VH: EVQLVESGGGLVQPGGSLRLSCAASGFTVSSNYMSWVRQAPGKGLEWVSLIYSGGSTYYADSVKGRFTISRHNSKNTLYLQMNSLRSEDTAVYYCARVPLGDYYYGMDVWGQGTTVTVSS VL: DIQMTQSPSSLSASVGDRVTITCQASQDINKYLNWYQQKPGKAPKLLIYDASNLETGVPSRFSGSGSGTDFTFTISSLQPEDIATYYCQQSDNLPLTFGGGTKVEIKR",0.0794,0.000107,1.35e+06,1.8
"mAb10967 (antibody, V domains shown) VH: EVQLVESGGGLVQPGGSLRLSCAASGFTVSSNYMSWVRQAPGKGLEWVSVIYPGGSTFYADSVKGRFTISRDNSKNTLYLQMNSLRAEDTAVYYCARDQRDFAWGQGTLVTVSS VL: DIQMTQSPSSLSASVGDRVTITCQASQDISNYLNWYQQKPGKAPKLLIYDASNLETGVPSRFSGSGSGTDFTFTISGLQPEDIATYYCQQYDNLPPTFGQGTRLEIKR",0.0203,–,–,14.3
"mAb10955 (antibody, V domains shown) VH: EVQLVESGGGLVQPGGSLRVSCAASGFTVSRNYMSWVRQAPGKGLEWVSVIYSGGSTFYADSVKGRFTISRDNSKNTLYLQMNSLRAEDTAIYYCARYIPRFDPWGQGTLVTVSS VL: DIQMTQSPSSLSASVGDRVTITCQASQDISNYLNWFQQKPGRAPKLLIYDASNLETGVPSRFSGSGSGTDFTFTISSLQPEDIATYYCQQYDNLPITFGQGTRLEIKR",0.0771,–,–,2.09
"mAb10954 (antibody, V domains shown) VH: EVQLVESGGGLVQPGGSLRLSCAASGITVSSNYMSWVRQAPGKGLEWVSLIYSGGSTYYADSVKGRFTISRDNSKNTLYLQMNSLRVEDTAVYYCARDHGMAAAGYNYWGQGTLVTVSS VL: DIQMTQSPSSLSASVGDRVTITCQASQDINKYLNWYQQKPGKAPKLLIYDASNLETGVPSRFSGSGSGTDFTFTINSLQPEDFATYFCQQYDNLPPAFGQGTKVEIKR",0.0203,–,–,4.03
"mAb10938 (antibody, V domains shown) VH: EVQLVESGGGLVQPGGSLRLSCAVSGFTVSSNYMSWVRQAPGKGLEWVSLIYSGGSTFYADSVKGRFTISRHNSKNTLYLQMNSLRAEDTAVYYCAREGGYSYDYNYWGQGTLVTVSS VL: DIQMTQSPSSLSASVGDRVTITCQASQDIRNYLNWYQQKPGKAPKLLIYDASNLETGVPSRFSGIGSGTDFTFTISSLQPEDIATYYCQQYDNLPITFGQGTRLEIKR",0.0702,–,–,11.4
"mAb10914 (antibody, V domains shown) VH: EVQLVESGGGLVQPGGSLRLSCAASGLIVSRNYMIWVRQAPGKGLEWVSVIYSGGSTFYADSVKGRFTISRHNSKNTLYLQMNSLRAEDTAVYYCARDLGTGGMDVWGQGTTVTVSS VL: DIQLTQSPSFLSASVGDRVTITCWASQGISSYLAWYQQKPGKAPKLLIYAASTLQSGVPSRFSGSGSGTEFTLTISSLQPEDFATYYCQQLNSYPLTFGGGTKVEIKR",0.54,–,–,1.38
"mAb10957 (antibody, V domains shown) VH: EVQLVESGGGLVQPGGSLRLSCAASGVTVSSNYMSWVRQAPGKGLEWVSVIYSGGSTFYADSVKGRFTISRDNSKNTLFLQMNSLRIEDTAVYYCARDLGPYGMDVWGQGTTVTVSS VL: DIQLTQSPSFLSASVGDRVTITCRASQGISSYLAWYQQKPGKAPKLLIYAASTLQSGVPSRFSGSGSGTQFILTISSLQPEDFATYYCQQLNSYPGFTFGPGTKVDIKR",0.0327,–,–,5.75
"mAb10956 (antibody, V domains shown) VH: EVQLVESGGGLVQPGGSLRLSCAASGLTVSSNYMSWVRQAPGKGLEWVSVIYSGGSTFYADSVKGRFTISRDNSKNTLYLQMNSLRAEDTAVYYCARDLIKYGMDVWGQGTTVTVSS VL: not shown",0.0887,–,–,1.48
"mAb10930 (antibody, V domains shown) VH: EVQLVESGGGLVQPGRSLRLSCAASGFTFDDYAMYWVRQAPGKGLEWVSGISWNSGSIGYADSVKGRFTISRDNAKNSLYLQMNSLRAADTALYYCAKDKDWNSRGYYYYGMDVWGQGTTVTVSS VL: not shown",0.181,0.000171,943000,1.12
"mAb10932 (antibody, V domains shown) VH: EVQLVESGGGLVQSGGSLRLSCAASGLTVSSNYMSWVRQAPGKGLEWVSVIYSGGSTFYSDSVKGRFTISRHNSKNTLYLQMNSLRAEDTAVYYCARARGDAFDIWGQGTMVTVSS VL: not shown",0.0967,2.85e-05,295000,6.75
"mAb10965 (antibody, V domains shown) VH: EVQLVESGGGLIQPGGSLRLSCAASVFTVSYNYMSWVRQAPGKGLEWVSVIYSGGSTYYADSVKGRFTISRDNSKNTLYLQMNSLRAEDTAVYYCARALPGWGGSFEYFDYWGQGTLVTVSS VL: not shown",0.225,–,–,1.23
"mAb10913 (antibody, V domains shown) VH: EVQLVESGGGLVQPGGSLRLSCAASGFTFRNYEMNWVRQAPGKGLEWVSYITSSGSTMYYADSVKGRFTISRDNAKNSLYLQMNSLRAEDTAVYYCARDGFYYYYAMDVWGQGTTVTVSS VL: QSVLTQPPSVSAAPGQKVTISCSGSSSNIGNNYVSWYQQLPGTAPKLLIYDNNKRPSGIPDRFSGSKSGTSATLGITGLQTGDEADYYCGTWDSSLSVGRVFGTGTKVTVLG",0.0553,0.000277,5e+06,0.695
"mAb10920 (antibody, V domains shown) VH: QVQLVESGGGVVQPGRSLRLSCAASGFTFSYYGMHWVRQAPGKGLEWVAVIWYDGSNKFYADSVKGRFTISRDNSKNTLYLQMNSLRAEDTAVYYCAAARPGYYYGMDVWGQGTTVTVSS VL: DIQMTQSPSSLSASVGDRVTITCRASQGISNYLAWFQQKPGKAPNSLIYAASSLQRGVPSKFSGSGSGTDFTLTISSLQPEDFATYYCQQYNSYPRTFGQGTKVEIKR",0.0502,–,–,0.755
"mAb10921 (antibody, V domains shown) VH: EVQLVESGGGLVQPGGSLRLSCAASGITVSSNYMSWVRQAPGKGLEWVSVIYSGGSTFYADSVKGRFTISRHNSKNTLYLQMNSLRAEDTAVYYCARERNFDAFDIWGQGTMVTVSS VL: DIQMTQSPSSVSASVGDRVTITCRASQGISSWLAWYQQKPGKAPKLLIYAASSLQSGVPSRFSGSGSGTDFTLTISSLQPEDFATYYCQQANSFPLFTFGPGTKVDIKR",0.125,3.34e-05,266000,5.76
"mAb10937 (antibody, V domains shown) VH: QITLKESGPTLVKPTQTLTLTCTFSGFSLSTNVVGVGWIRQPPGKALEWLALIYWNDDKRYSPSLKSRLTITKDTSKNQVVLTMTNMDPVDTATYYCAHGPTGDYFDYWGQGTLVTVSS VL: not shown",0.0304,5.4e-05,1.78e+06,3.56
"mAb10939 (antibody, V domains shown) VH: EVQLVESGGGLVQPGGSLRLSCAASGLTVSSNYMNWVRQVPGKGLEWVSVIYSGGSKFYVDSVKGRFTISRHNSKNTLYLQMNSLRPEDTAVYYCTRDAQYYGMDVWGQGTTVTVSS VL: DIQMTQSPSSLSASVGDRVTITCRASQSISTYLHWYQQKPGEAPKLLIYAASSLQSGVPSRFSGSGSGTDFTLTISSLQPEDFATYYCQQSYSTPPEIFGQGTKLEIKR",0.121,8.74e-05,722000,2.2
"mAb10915 (antibody, V domains shown) VH: EVQLVESGGGLVQPGGSLRLSCAASGFTVSSNYMNWVRQAPGKGLEWVSVIYSGGSTFYADSVKGRFTISRHNSKNTLYLQMNSLRPEDTAVYYCARDLGGYFDYWGQGTLVTVSS VL: not shown",0.0323,–,–,21.1
"mAb10923 (antibody, V domains shown) VH: QVQLVQSGAEVKKPGASVKVSCKASGYTFINYYIHWVRQAPGQGLEWMGWINPNSGGTNYAQKFQGRVTMTRDTSISTAYMELSRLRSDDTAVYYCAIITIFGVVTWFDPWGQGTLVTVSS VL: not shown",0.0367,0.000135,3.69e+06,1.43
"mAb10936 (antibody, V domains shown) VH: QVQLVESGGGVVQPGRSLRLSCAASGFTFRNYGMHWVRQAPGKGLEWVSVIWYDGSNRYYADSVKGRFTISRDTSKNTLYLQMNSLRAEDTAVYYCARDPPITGTTGGDAFDIWGQGTMVTVSS VL: not shown",0.0283,5.04e-05,1.78e+06,3.82
"mAb10966 (antibody, V domains shown) VH: EVQLVESGGGLVQPGGSLRLSCAASGLTVSSNYMSWVRQAPGKGLEWVSVIYSGGSTFYADSVKGRFTISRDNSKNTLYLQMNSLRPEDTAVYYCAREGRIAATGYGMDVWGQGTTVTVSS VL: not shown",0.0224,–,–,5.71
"mAb10971 (antibody, V domains shown) VH: EVQLVESGGGLIQPGGSLRLSCAASGVTVSSNYMSWVRQAPGKGLEWVSVIYSGGSTFYSDSVKGRFSISRDNSKNTLYLQMNSLRAEDTAVYYCARDLYYYGMDVWGQGTTVTVSS VL: DIQLTQSPSFLSASVGDRVTITCRASQGISTYLAWYQQKPGKAPKLLIYAASTLQSGVPSRFSGSGSGTEFTLTISSLQPEDFATYYCQQLDSYPGLTFGGGTKVEIKR",0.0292,4.09e-05,1.4e+06,4.71
"mAb10964 (antibody, V domains shown) VH: QVQLQESGPGLVKPSETLSLTCTVSGGSINNYYWIWIRQPPGKGLEWIGYIYHSGSTNYNPSLKSRVTISVDTSKNQFSLKVSSVTAADTAVYYCANMVRGVYEDDYWGQGTLVTVSS VL: DIQMTQSPSSLSASVGDRVTITCRASQSISNYLNWYQQKPGKAPKLLIFAASSLRSGVPSRFSGSGSGTDFTLTISSLHPEDFATYYCQQNYNTPLTFGPGTKVDIKR",0.00397,–,–,5.22
"mAb10969 (antibody, V domains shown) VH: QVQLVESGGGVVQPGRSLRLSCAASGFTFSSYAMHWVRQAPGKGLEWVAVISYDGSNKYYADSVKGRFTISRDNSKNTLYLQMNSLRAEDTAVYYCARDGRTITMVRGVIDDAFDIWGQGTMVTVSS VL: not shown",0.216,–,–,1.93
